Data on 1 molecule can be found in PMC4891260 (2015).

The target in this assay is T1, DEAD box helicase p68 S551F (mp68) peptide on H-2Kb (mouse).
T1 peptide: SNFVFAGI
As to the kind of experiment: killing.

B1: 1D9 TCR (TCR)
alpha TRAV1 TRAJ30 CDR3: CAVRSDTNAYKVIF
beta TRBV19 TRBJ2-7 CDR3: CASSKRLSSYEQYF
As for B1, the binding result is recorded as “recognises”.
